# In the supplement of paper PMC12042874:
# ± gives the uncertainty stated by the source.
# Assay: amyloid nucleation score (Sup35N fusion, yeast selection) (log enrichment); library NNK3; higher = more nucleation; inactive = no reads after selection
# Summary of the method: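 DiMSum was used to calculate nucleation scores as log enrichment of output over input reads, centred on the mode score of non-aggregating sequences. Sequences with fewer than 100 input reads were not scored. Input and output came from Illumina sequencing of plasmid inserts in psi-negative yeast expressing peptides of 20 random codons fused to Sup35N, induced 24 hours with 100 μM copper sulfate and then grown 7 days at 30°C on medium lacking adenine and uracil.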
row,Substance,amyloid nucleation score
1,CLILCLIKYIERRFCWCFPW,inactive
2,IDLVVSQVWQSTGAVVALWH,-0.301 ± 0.83
3,FVGTCGMMSALFLHSSPSFV,inactive
4,DSPRGV,inactive
5,IMMFIPWTSYLKYRIIMDYS,inactive
6,NGVCTVNVTFCYMV,2.23 ± 0.058
7,VWGMMFNMCYRELCLAMTLF,inactive
8,WGSRHKIVCELGLPFYVLEG,inactive
9,DNFVEDFLTMASGNIRC,inactive
10,SLMYKCLINSILY,1.97 ± 0.051
11,LRTLSGNICANL,inactive
12,RVAFSMESTPWSMFTSRTAE,inactive
13,WLCPYARFIRNRSLLFCMFW,inactive
14,TCMYNMVVGSLVGRWNC,1.4 ± 0.13
15,FCIQSVFCCT,2.88 ± 0.071
16,LSIVITRYDMSCSAETMFNL,inactive
17,MSFWY,inactive
18,SVSNPRNRT,inactive
19,ISVAWWGCSTAYRRCKD,1.14 ± 0.12
20,FDRAFYNHWFSCGFPEGWHT,0.501 ± 0.17
21,TYYNHIRLVYLIGAKRWEEL,inactive
22,CKNQHFLSLIGFLYHIDPKR,0.709 ± 0.17
23,MIYSYTNFGNIWKVCQVMRH,2.39 ± 0.057
24,WFMRFTLSLVTGLVNGSAWS,inactive
25,LDFSPWKFSTVGSRSSGMNG,inactive
26,GFWWVTRPSTPARLSSMSPQ,inactive
27,IYPMLW,-0.428 ± 0.62

row,Substance,amyloid nucleation score
1,YSKFFTENVYNSISGAMPHF,inactive
2,VRVDDKSNCVTRRFKP,inactive
3,CLVHEVPWRQMGSDLNKAAS,inactive
4,FNWCWPISARAGELNLECWS,inactive
5,TYCERKFTTSGTSYTSQKYF,inactive
6,ASAYSTYKVERLGFDGVQSS,inactive
7,VDKLGSYPMPLVLGVVNTYQ,inactive
8,RILCRVRYM,inactive
9,SVLRYYSNESRLTVHLSVCI,inactive
10,GGLQTERFLWRC,0.13 ± 0.63
11,KRTQDCMDRPRMLAAKASPS,inactive
12,KAPRMVLLRSGIVMLAHSEN,inactive
13,RITIMFGSLINDLHFCNA,2.87 ± 0.052
14,YCSVFRES,0.014 ± 0.63
15,ISMNLVLFMWFRRIGFLICL,inactive
16,TCVWRHAWQSGAHRVVRLAW,inactive
17,DQGHRNYINSPRNFLSDKSC,inactive
18,DSLIVCTVPHGLDVVSTRRV,inactive
19,ELIAIRRSNFHKKFLLNLYC,inactive
20,LQKGGNITCTVNHFMWVFAH,0.592 ± 0.32
21,NRGFYQ,inactive
22,SEHMNGWHHNLTQCEENFRN,inactive
23,LDWDFGHDRVRFPERHT,inactive
24,VNVDLPLARNHWYPSPIYMV,-0.654 ± 0.84
25,CYQSE,inactive
26,APDQLF,inactive
27,SLIYTKYLLMYFIILFLDGG,inactive

row,Substance,amyloid nucleation score
1,FNGSTCCVSSV,inactive
2,VHFLILETFKQNMWGYDLTL,inactive
3,WAIWAYRTLVESMWGTKIGK,inactive
4,YASSCDVKLMQSSPLAYEVD,inactive
5,LRVQHFDTFNPANGSTPKVG,inactive
6,NLKFRRFTGNMCSTPKVCLK,inactive
7,PCHHFFFA,inactive
8,QYRDSYANSSQNPFHCFFNL,inactive
9,SVIILYRCSFRGWRSHASGN,1.05 ± 0.1
10,LCFNLYMFCSYVCGMAIKSL,inactive
11,RIWRPLTFMSLDLMIMWCRH,inactive
12,CGIMPLSHGIDLMFVRVTPG,inactive
13,IMCSGFFDTVKFGWSLLSFS,0.521 ± 0.24
14,DIWYKVLYMPVLTV,inactive
15,FITFHENDAVELEG,inactive
16,HILFLYRDLVILVLCSSHPC,inactive
17,GMTVLLSMVI,inactive
18,GFMHTVRCIRIEPPQCRAVV,inactive
19,TASTQSPYHFYCRV,inactive
20,SVGVFVYLKLINLIVLGGRG,inactive
21,FVTKRCFDMLF,inactive
22,SLFGVNGMSAPGRRDV,0.589 ± 0.31
23,YEYWYFCRDDNNFVYLIR,inactive
24,AYWSFFPWGLYARLPGTPVV,inactive
25,YFSKVIVDLKNSCIL,inactive
